Source: US20260008847A1 (ELPISCIENCE SUZHOU BIOPHARMA, published 2026)

What was measured:
[1] = target: T1, Human LILRA1 ECD recombinant protein with 6×His-tag (human, UniProt O75019 17-461); test: ELISA: plate coated with LILRA1 ECD recombinant protein
T1 construct: range 1-461; Bought protein; not shown: 6×His-tag

[2] = target: T2, 6×His-tagged human LILRB2 ECD recombinant protein (human, UniProt Q8N423 22-458, limits assumed); test: Octet tandem binning on captured 6×His LILRB2 ECD; competitor (Ab1) 043c
T2 construct: Bought protein; not shown: 6×His-tag

[3] = target: T2, 6×His-tagged human LILRB2 ECD …; test: Octet tandem binning on captured 6×His LILRB2 ECD; competitor (Ab1) J-19
Protocol: Briefly, the HIS1K sensors were hydrolyzed for 10 minutes followed by capture of 6×His-tagged human LILRB2 ECD recombinant protein to 0.3 nm. The LILRB2 captured sensors were then exposed to Ab1 and Ab2 in tandem or Ab2 directly. The binding signals of Ab2 to LILRB2 under different conditions were detected respectively. Finally, the relative binding signals of Ab2 in tandem were calculated by normalization. High relative binding signals represent low competition between Ab2 and Ab1 for binding antigen. Likewise, low relative association signals represent high competition between Ab2 and Ab1.

[4] = target: T3, Human LILRA4 ECD recombinant protein with 6×His-tag (human, UniProt P59901 24-446); test: ELISA: plate coated with LILRA4 ECD recombinant protein [continued) D]
T3 construct: range 1-446; Bought protein; not shown: 6×His-tag

[5] = target: T4, Human LILRB1 ECD recombinant protein with 6×His-tag (human, UniProt Q8NHL6 24-458, limits assumed); test: ELISA: plate coated with LILRB1 ECD recombinant protein [continued) F]
T4 construct: Bought protein; not shown: 6×His-tag

[6] = target: T5, Human LILRB3 ECD recombinant protein with 6×His-tag (human, UniProt O75022 24-443); test: ELISA: plate coated with LILRB3 ECD recombinant protein [continued) G]
T5 construct: range 1-443; Bought protein; not shown: 6×His-tag

[7] = target: T6, Human LILRB5 ECD recombinant protein with 6×His-tag (human, UniProt O75023 24-458, limits assumed); test: ELISA: plate coated with LILRB5 ECD recombinant protein [continued) I]
T6 construct: Bought protein; not shown: 6×His-tag

[8] = target: T2, 6×His-tagged human LILRB2 ECD …; test: ELISA: plate coated with 6xHis-tagged human LILRB2 ECD, antibody at 0.5 ug/mL, HRP detection antibody; mean OD450 printed over the bar
Protocol: (§1) Briefly, 0.5 μg/mL anti-LILRB2 antibodies were incubated in human LILRB2 ECD recombinant protein-coated ELISA plate at 37° C. for 1 hour. After washing, horseradish peroxidase (HRP) labeled detection antibody was added and incubated at 37° C. for 1 hour. Color development was conducted by the addition of 100 μl/well of TMB (3,3′,5,5′-Tetramethylbenzidine) solution. After incubation at room temperature (RT) for 10-15 minutes, the reaction was stopped by adding 100 μl 1N HCl. Then the plates were read immediately using plate reader for optical density at 450 nm.

[9] = target: T1, Human LILRA1 ECD recombinant protein …; test: ELISA: plate coated with LILRA1 ECD recombinant protein, antibody at 0.5 ug/mL (method of example 3.2.1); mean OD450 printed over the bar
Protocol: as §1

[10] = target: Human LILRB4 ECD recombinant protein with 6×His-tag (human) (UniProt Q8NHJ6); test: ELISA: plate coated with LILRB4 ECD recombinant protein, antibody at 0.5 ug/mL (method of example 3.2.1); mean OD450 printed over the bar [continued) H]
[11] = target: T7, Human LILRA2 ECD recombinant protein with His-tag (human, UniProt Q8N149 24-449); test: ELISA: plate coated with LILRA2 ECD recombinant protein, antibody at 0.5 ug/mL (method of example 3.2.1); mean OD450 printed over the bar [continued) B]
T7 construct: range 24-449; Bought protein; not shown: His-tag

[12] = target: T8, Human LILRA3 ECD recombinant protein with 6×His-tag (human, UniProt Q8N6C8 24-439); test: ELISA: plate coated with LILRA3 ECD recombinant protein, antibody at 0.5 ug/mL (method of example 3.2.1); mean OD450 printed over the bar [continued) C]
T8 construct: range 1-439; Bought protein; not shown: 6×His-tag

[13] = target: T3, Human LILRA4 ECD recombinant protein …; test: ELISA: plate coated with LILRA4 ECD recombinant protein, antibody at 0.5 ug/mL (method of example 3.2.1); mean OD450 printed over the bar [continued) D]
Protocol: as §1

[14] = target: T9, Human LILRA5 ECD recombinant protein with 6×His-tag (human, UniProt A6NI73 42-268); test: ELISA: plate coated with LILRA5 ECD recombinant protein, antibody at 0.5 ug/mL (method of example 3.2.1); mean OD450 printed over the bar [continued) E]
T9 construct: range 1-268; Bought protein; not shown: 6×His-tag

[15] = target: T5, Human LILRB3 ECD recombinant protein …; test: ELISA: plate coated with LILRB3 ECD recombinant protein, antibody at 0.5 ug/mL (method of example 3.2.1); mean OD450 printed over the bar [continued) G]
Protocol: as §1

[16] = target: T6, Human LILRB5 ECD recombinant protein …; test: ELISA: plate coated with LILRB5 ECD recombinant protein, antibody at 0.5 ug/mL (method of example 3.2.1); mean OD450 printed over the bar [continued) I]
Protocol: as §1

[17] = target: T10, Human LILRB2 stably expressed on EL4 cells (EL4/LILRB2) (human, UniProt Q8N423 22-597); test: Competitive FACS: EL4/LILRB2 cells preincubated with 10 ug/mL antibody, then MAG ECD added; inhibition of the ligand's binding to the cells [panel MAG]
T10 construct: also called EL4-LILRB2 cells; cell membrane human LILRB2
Protocol: (§2) The blocking activities were determined by quantitating the blockade of the ligands binding to EL4/LILRB2 cells.

[18] = target: T10, Human LILRB2 stably expressed on EL4 …; test: Competitive FACS: EL4/LILRB2 cells preincubated with 10 ug/mL antibody, then ANGPTL1 added; inhibition of the ligand's binding to the cells [panel ANGPTL1]
Protocol: as §2

[19] = target: T10, Human LILRB2 stably expressed on EL4 …; test: Competitive FACS: EL4/LILRB2 cells preincubated with 10 ug/mL antibody, then ANGPTL2 added; inhibition of the ligand's binding to the cells [panel ANGPTL2]
Protocol: as §2

[20] = target: T10, Human LILRB2 stably expressed on EL4 …; test: Competitive FACS: EL4/LILRB2 cells preincubated with 10 ug/mL antibody, then HLA-G complex tetramer added; inhibition of the ligand's binding to the cells [panel HLA-G]
Protocol: as §2

T1 sequence (O75019 17-461 limits assumed): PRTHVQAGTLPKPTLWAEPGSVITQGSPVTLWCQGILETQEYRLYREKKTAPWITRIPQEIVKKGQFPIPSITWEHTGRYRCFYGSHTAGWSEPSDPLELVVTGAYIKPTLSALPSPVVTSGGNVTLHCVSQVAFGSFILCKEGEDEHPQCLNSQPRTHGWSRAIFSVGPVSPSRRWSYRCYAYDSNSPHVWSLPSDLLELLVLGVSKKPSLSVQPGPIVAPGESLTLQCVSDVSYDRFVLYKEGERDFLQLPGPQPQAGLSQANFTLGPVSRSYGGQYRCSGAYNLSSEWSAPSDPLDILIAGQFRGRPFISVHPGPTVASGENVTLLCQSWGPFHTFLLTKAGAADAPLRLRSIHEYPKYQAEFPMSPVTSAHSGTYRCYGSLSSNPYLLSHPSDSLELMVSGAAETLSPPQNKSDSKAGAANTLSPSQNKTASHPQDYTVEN
T6 sequence (O75023 24-458 limits assumed): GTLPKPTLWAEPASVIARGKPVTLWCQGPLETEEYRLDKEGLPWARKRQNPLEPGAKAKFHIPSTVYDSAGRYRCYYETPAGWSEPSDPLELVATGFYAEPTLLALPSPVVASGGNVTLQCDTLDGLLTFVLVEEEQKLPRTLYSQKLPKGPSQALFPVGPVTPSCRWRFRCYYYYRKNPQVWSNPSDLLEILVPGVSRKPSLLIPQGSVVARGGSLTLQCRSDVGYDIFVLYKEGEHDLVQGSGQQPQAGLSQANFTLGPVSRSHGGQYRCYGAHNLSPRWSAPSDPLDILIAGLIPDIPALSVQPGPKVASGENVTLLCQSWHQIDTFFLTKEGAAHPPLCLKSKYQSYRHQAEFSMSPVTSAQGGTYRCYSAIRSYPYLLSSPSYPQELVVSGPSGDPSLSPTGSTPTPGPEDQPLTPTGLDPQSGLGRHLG
T7 sequence (Q8N149 24-449 limits assumed): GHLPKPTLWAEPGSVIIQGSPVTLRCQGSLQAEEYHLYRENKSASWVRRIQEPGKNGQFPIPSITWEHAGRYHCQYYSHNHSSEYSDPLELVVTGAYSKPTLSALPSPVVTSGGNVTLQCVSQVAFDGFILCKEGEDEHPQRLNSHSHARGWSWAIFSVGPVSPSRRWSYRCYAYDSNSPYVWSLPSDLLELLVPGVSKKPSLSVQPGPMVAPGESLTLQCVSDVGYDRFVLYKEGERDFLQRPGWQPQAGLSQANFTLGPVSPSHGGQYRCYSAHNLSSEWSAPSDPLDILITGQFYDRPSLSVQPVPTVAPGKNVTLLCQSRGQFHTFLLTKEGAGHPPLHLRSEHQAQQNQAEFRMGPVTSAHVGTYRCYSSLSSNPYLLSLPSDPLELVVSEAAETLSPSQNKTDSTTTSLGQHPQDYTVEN
T3 sequence (P59901 24-446 limits assumed): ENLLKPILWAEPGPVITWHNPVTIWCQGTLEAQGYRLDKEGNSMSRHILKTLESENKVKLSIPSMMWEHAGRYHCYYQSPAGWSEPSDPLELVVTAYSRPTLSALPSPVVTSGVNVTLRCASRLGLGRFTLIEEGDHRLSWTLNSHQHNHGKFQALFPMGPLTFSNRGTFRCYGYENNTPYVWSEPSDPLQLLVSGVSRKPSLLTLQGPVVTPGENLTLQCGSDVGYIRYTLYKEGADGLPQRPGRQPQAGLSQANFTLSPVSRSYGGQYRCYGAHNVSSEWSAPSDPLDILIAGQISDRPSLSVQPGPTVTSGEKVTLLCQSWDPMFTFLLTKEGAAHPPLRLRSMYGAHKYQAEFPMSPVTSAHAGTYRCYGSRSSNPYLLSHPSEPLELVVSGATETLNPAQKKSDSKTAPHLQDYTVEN
T9 sequence (A6NI73 42-268 limits assumed, form in doubt): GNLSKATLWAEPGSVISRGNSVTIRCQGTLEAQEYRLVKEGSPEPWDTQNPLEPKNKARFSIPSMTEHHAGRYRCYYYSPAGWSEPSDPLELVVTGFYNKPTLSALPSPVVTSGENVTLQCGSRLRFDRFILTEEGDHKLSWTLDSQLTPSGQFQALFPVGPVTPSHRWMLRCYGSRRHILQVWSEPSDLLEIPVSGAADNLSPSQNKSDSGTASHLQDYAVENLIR
T10 sequence (Q8N423 22-597 limits assumed): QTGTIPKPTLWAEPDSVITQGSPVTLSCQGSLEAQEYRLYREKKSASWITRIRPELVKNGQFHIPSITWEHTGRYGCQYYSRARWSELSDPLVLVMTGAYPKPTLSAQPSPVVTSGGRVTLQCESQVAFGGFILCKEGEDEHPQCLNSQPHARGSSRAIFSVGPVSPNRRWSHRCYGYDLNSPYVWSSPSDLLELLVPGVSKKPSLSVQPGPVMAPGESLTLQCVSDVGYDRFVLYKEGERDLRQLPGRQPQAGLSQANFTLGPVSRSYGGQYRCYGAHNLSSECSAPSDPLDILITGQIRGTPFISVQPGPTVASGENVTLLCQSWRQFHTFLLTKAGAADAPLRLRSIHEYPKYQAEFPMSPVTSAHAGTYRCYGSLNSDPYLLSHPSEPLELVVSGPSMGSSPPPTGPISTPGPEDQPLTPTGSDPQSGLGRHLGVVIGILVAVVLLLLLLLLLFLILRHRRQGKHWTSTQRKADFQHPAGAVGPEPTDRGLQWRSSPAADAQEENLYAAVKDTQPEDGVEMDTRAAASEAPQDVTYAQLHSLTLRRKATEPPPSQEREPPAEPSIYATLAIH
T4 sequence (Q8NHL6 24-458 limits assumed): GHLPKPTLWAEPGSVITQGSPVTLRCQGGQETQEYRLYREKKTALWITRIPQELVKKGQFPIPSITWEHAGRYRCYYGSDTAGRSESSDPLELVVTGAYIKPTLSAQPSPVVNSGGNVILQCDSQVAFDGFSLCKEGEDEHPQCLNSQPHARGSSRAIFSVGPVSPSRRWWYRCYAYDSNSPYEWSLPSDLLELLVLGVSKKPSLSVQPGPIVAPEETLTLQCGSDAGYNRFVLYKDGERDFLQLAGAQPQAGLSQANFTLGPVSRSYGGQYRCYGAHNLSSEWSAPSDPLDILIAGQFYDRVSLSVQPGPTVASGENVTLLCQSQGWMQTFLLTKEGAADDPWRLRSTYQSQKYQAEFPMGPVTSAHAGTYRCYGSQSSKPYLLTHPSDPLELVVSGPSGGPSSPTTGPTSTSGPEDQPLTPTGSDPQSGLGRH
T8 sequence (Q8N6C8 24-439 limits assumed, form in doubt): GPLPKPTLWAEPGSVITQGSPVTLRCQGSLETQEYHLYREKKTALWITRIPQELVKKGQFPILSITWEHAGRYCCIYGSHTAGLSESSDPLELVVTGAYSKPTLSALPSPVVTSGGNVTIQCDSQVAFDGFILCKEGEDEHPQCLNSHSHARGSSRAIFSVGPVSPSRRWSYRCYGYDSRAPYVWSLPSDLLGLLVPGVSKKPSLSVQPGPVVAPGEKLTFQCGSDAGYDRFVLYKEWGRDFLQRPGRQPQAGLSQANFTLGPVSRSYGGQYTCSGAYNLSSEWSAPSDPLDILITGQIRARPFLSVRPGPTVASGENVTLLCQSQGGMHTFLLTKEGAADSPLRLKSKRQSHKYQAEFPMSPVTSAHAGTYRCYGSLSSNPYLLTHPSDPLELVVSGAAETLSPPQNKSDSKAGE
T2 sequence (Q8N423 22-458 limits assumed): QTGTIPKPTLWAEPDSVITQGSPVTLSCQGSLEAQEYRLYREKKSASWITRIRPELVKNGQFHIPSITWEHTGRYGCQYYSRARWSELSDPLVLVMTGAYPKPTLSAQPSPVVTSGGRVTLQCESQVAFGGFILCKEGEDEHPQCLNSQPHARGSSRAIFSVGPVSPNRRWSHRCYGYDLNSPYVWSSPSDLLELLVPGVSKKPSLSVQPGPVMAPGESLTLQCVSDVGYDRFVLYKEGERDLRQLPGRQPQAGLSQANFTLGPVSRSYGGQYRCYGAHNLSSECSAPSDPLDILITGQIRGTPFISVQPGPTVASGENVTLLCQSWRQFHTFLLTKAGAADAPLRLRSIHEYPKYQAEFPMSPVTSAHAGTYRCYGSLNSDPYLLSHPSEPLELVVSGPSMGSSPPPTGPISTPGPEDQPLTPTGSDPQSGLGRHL

binding result [1] | relative binding signal of Ab2 in tandem [2] | relative binding signal of Ab2 in tandem [3] | binding result [4] | binding result [5] | binding result [6] | binding result [7] | OD450 [8] | OD450 [9] | OD450 [10] | OD450 [11] | OD450 [12] | OD450 [13] | OD450 [14] | OD450 [15] | OD450 [16] | Inhibition (%) [17] | Inhibition (%) [18] | Inhibition (%) [19] | Inhibition (%) [20] | Binder
no binding (tested: 0.5 ug/mL) | 100% | 17% | no binding (tested: 0.5 ug/mL) | no binding (tested: 0.5 ug/mL) | no binding (tested: 0.5 ug/mL) | no binding (tested: 0.5 ug/mL) | 1.42 | 0.15 | 0.1 | 0.07 | 0.07 | 0.12 | 0.07 | 0.07 | 0.07 | 93% | 70% | 94% | 100% | 1E1 (antibody, V domains shown, Human IgG4 monoclonal antibody with S228P in the constant region, made according to US 2018/0298096 A1; also called benchmark antibody 1E1) VH: QVQLQQWGAGLLKPSETLSLTCAVYGGSFSGYYWSWIRQPPGKGLEWIGEINHSGSTNYNPSLKSRVTISVDTSKNQFSLKLSSVTAADTAVYYCARLPTRWVTTRYFDLWGRGTLVTVSS VL: QSVLTQPPSVSGAPGQRVTISCTGSSSNIGAGYDVHWYQQLPGTAPKLLIYGNSNRPSGVPDRFSVSKSGASASLAITGLQAEDEADYYCQSFDNSLSAYVFGGGTQLTVL
no binding (tested: 0.5 ug/mL) | 96% | -3% | no binding (tested: 0.5 ug/mL) | no binding (tested: 0.5 ug/mL) | no binding (tested: 0.5 ug/mL) | no binding (tested: 0.5 ug/mL) | 3.27 | 0.16 | 0.14 | 0.08 | 0.08 | 0.17 | 0.09 | 0.09 | 0.09 | 13% | 70% | 97% | 100% | J-19 (antibody, V domains shown, Human IgG4 monoclonal antibody with S228P in the constant region, made according to WO 2019/126514 A2; also called benchmark antibody J-19) VH: QVTLKESGPGILQPSHTLSLTCSFSGFSLNTYAMGVSWIRQPSGKGLEWLASIWWNGNKYNNPSLKSRLTVSKDTSNNQAFLKVTSVDTADTATYYCAHSRIIRFTDYVMDAWGQGASVTVSS VL: DIQMTQSPASLSTFLGEPVTIECRASEDIYNDLAWYQQKPGKSPQLLIYNANSLHTGVPSRFSGSGSGTQYSLKINSLQSEDVASYFCQQYYDYPLTFGSGTKLEIK
no binding (tested: 0.5 ug/mL) | 3% | 100% | no binding (tested: 0.5 ug/mL) | no binding (tested: 0.5 ug/mL) | no binding (tested: 0.5 ug/mL) | no binding (tested: 0.5 ug/mL) | 2.72 | 0.15 | 0.11 | 0.08 | 0.09 | 0.13 | 0.08 | 0.08 | 0.08 | 90% | 71% | 93% | 100% | 043c (antibody, V domains shown, Human IgG4 chimeric antibody with S228P mutation at the Fc region; also called chimeric antibody 043c; parental antibody 043c) VH: QVQLQQSGAELAKPGASVKLSCKASGYTFTSYWMYWVKQRPGQGLEWIGHINPSSGYTKYNQKFKDKATLTADKSSSTAYMQLSSLTYEDSAVYYCARDPNWDNYWGQGTTLTVSS VL: DIVMTQSHKFMSTSVGDRVSITCKASQDVSIAVAWYQQKPGQSPKLLIYSASYRYTGVPDRFTGSGSGTDFTFTISSVQAEDLAVYYCQQHYSTPYTFGGGTKLEIK
